Consider 14 substances from patent publication US8524664B2, “Methods of treating overproduction of cortisol using ACTH antagonist peptides” (Colorado Seminary, Which owns and Operates The Univeristy …, priority 2011, dated 2013).

For assay [1], the target named is T1, MC2R (Homo sapiens, UniProt Q01718). Briefly: Inhibition of ACTH(1-24)-dependent hMC2R activation by co-incubated analog: cAMP in transfected CHO cells. Format: cell-based. On the set-up: host or cells: CHO cells, transient transfection, pcDNA3.1. Here is the method: (§1) FIG. 1. Inhibition of ACTH(1-24) by ACTH(15-24) peptide. For all experiments, Chinese Hamster Ovary (CHO) cells were transiently transfected with a human melanocortin receptor gene construct (MC2R for FIGS. 1-3) and a mouse MRAP1 gene, as described in the Examples section. Two days later, individual wells of transfected CHO cells (10^5 cells per well) were incubated with ACTH(1-24) at concentrations ranging from 10^−6 to 10^−12 M. For these experiments, each concentration of ACTH(1-24) was co-incubated with either no KKRRPVKVYP (SEQ ID NO:1) (filled circle), 10^−6 M KKRRPVKVYP (SEQ ID NO:1) (filled diamond), 10^−7 M KKRRPVKVYP (SEQ ID NO:1) (half-filled square), 10^−8 KKRRPVKVYP (SEQ ID NO:1) (circle in square), or 10^−9 M KKRRPVKVYP (SEQ ID NO:1) (open square). After a 15 minute incubation, the amount of cAMP produced in each well of CHO cells was measured. Each data point is a minimum of n=3. […] The ACTH analog ACTH(11-24) [KPVGKKRRPVKVYP; SEQ ID NO:7] at a concentration of 10^−6 M produced a 50% inhibition of ACTH(1-24) stimulation, but had no effect on ACTH(1-24) stimulation when tested at a concentration of 10^−7 M.
FIG. 2. Dose response curve for ACTH analog AT814. AT814 is a previously-described ACTH inhibitor (WO 2006/052468). For this experiment, individual wells of transfected CHO cells (as described for FIG. 1) were incubated with ACTH(1-24) at concentrations ranging from 10^−6 to 10^−12 M alone (open circle) or ACTH(1-24) and AT814 at a concentration of 10^−6 M (open square).
FIG. 3. Dose response curve for ACTH analog AT814. […] Open circles: ACTH(1-24) alone; open squares: ACTH(1-24)+AT814 (10^−7 M).
(§2) To test this hypothesis, a human MC2R gene construct was transiently co-transfected with a mouse MCR2R accessory protein 1 (MRAP1) gene into CHO cells and subsequently, cAMP production was measured.
(§3) Human hMC2R, Genbank Accession No. AY225229.1, was synthesized by GenScript with a V-5 epitope tag and inserted into a pcDNA3.1 vector. Mouse (Mus musculus) mMRAP1, Genbank Accession No. NM_029844, was also synthesized by GenScript with a FLAG epitope tag and inserted into pcDNA3.1 vectors.
(§4) The experiments were all done in transiently transfected CHO cells. The CHO cells were grown at 37° C. in a humidified 5% CO2 incubator in Kaighn's Modification of Ham's F-12 (2 mM glutamine, 1500 mg/L bicarbonate) with 10% fetal bovine serum, 5 mL pen/strep, and 1 mL normocin.
(§5) In order to functionally express hMC2R in heterologous cells, like CHO cells, the hMC2R construct must be co-transfected with a mammalian MRAP (melanocortin receptor accessory protein; Hinkle, P. M. and Sebag, J. A. (2009) Structure and function of the melanocortin 2 receptor accessory protein. Mol. Cell. Endocrinol. 300:25-31). CHO cells were transfected with 2 μg of hMC2R and mMRAP using a Cell Line Nucleofector Kit (Amaxa, Inc.) with solution T and program U-023. The cells were then plated on a white, 96-well plate a density of 1×10^5 cells per well. 48 hours after transfection, cells were stimulated with the appropriate ligands in serum-free CHO media for 15 minutes at 37° C. at concentrations ranging from 10^−5 M to 10^−10 M. After a 15 minute incubation, a direct cAMP EIA kit (Assay Designs, Ann Arbor, Mich.) was used to measure cAMP in the CHO cells.
(§6) All experimental treatments were performed in no less than triplicate, and then corrected for control values, which were obtained by using transfected cells that were left unstimulated. In each of the assays, maximal activation levels were between three to 10 times the control level. Corrected values were normalized to 100 nM ACTH activation. Average values and standard errors of the mean were graphed using KaleidaGraph software, and the […] value for each ligand was determined.
Target sequence in this assay (Q01718 whole entry): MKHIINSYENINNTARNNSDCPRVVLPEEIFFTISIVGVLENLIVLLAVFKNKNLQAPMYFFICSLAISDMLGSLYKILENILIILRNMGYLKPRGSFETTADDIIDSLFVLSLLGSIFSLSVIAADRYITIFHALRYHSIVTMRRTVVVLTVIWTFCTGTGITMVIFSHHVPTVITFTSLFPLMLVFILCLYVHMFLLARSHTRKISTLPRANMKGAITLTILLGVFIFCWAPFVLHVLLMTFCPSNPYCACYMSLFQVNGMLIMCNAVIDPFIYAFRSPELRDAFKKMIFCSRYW
Target sequence in this assay (Q9D159 whole entry partner): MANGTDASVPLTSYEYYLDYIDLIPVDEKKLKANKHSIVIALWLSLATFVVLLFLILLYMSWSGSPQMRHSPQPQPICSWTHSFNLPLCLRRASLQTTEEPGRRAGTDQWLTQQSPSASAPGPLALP

Assay [2] concerns the target T1, MC2R. Briefly: Activation of hMC2R by ACTH analogs: cAMP production in CHO cells co-transfected with hMC2R and mouse MRAP1. Format: cell-based. On the set-up: host or cells: CHO cells, transient transfection, pcDNA3.1. The settings on record: 10^-6 to 10^-12 M. For orientation: Changes in cAMP serve as a functional read-out for many G protein-coupled receptors.
Target sequence in this assay (Q01718 whole entry): as the sequence (Q01718 whole entry) above
Target sequence in this assay (Q9D159 whole entry partner): as the sequence (Q9D159 whole entry partner) above
Assay [3] deals with T1, MC2R. Described as above. Format: cell-based. The settings on record: for MC2R activation relative to full-length ACTH / MC2R activation relative to full-length ACTH: fold drop in activity: analog alone, transfected CHO cells, cAMP after 15 min. On the set-up: host or cells: CHO cells, transient transfection, pcDNA3.1. How it is done:
as §1, §2, §3, §4, §5, §6
Target sequence in this assay (Q01718 whole entry): as the sequence (Q01718 whole entry) above
Target sequence in this assay (Q9D159 whole entry partner): as the sequence (Q9D159 whole entry partner) above

Assay [4] concerns the target T1, MC2R. The settings on record: from previous studies / literature, cited from earlier work.
Target sequence in this assay (Q01718 whole entry, species assumed): as the sequence (Q01718 whole entry) above
Target sequence in this assay (Q8TCY5 whole entry partner, species assumed): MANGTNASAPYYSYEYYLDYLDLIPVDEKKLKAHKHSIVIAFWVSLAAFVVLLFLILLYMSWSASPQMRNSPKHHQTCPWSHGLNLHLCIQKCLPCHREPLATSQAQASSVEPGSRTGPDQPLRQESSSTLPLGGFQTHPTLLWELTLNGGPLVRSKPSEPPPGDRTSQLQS
For a further assay, the target named is T2, human MC4R (Homo sapiens, UniProt P32245).
T2 construct: expressed in transfected cells; host or cells: CHO cells, pcDNA3.1
The experiment in a line: Activation of human MC4R in hMC4R-transfected CHO cells (cAMP production). Format: cell-based. The settings on record: analog at 10^-6 to 10^-12 M. How it is done: FIG. 4. Activation of human MC4R by ACTH analog AT814. Because AT814 has the HFRW (SEQ ID NO:8) motif, the hypothesis that this analog could activate the human MC4 receptor was tested. CHO cells were transfected with a human MC4R cDNA construct in a pcDNA3.1 vector.

Where [5] appears, read: analog at 10^-6 M co-incubated with ACTH(1-24) 10^-6 to 10^-12 M.
[6] abbreviates: analog at 10^-7 M co-incubated with ACTH(1-24) 10^-6 to 10^-12 M.
[7] abbreviates: analog at 10^-8 M co-incubated with ACTH(1-24).

Entries after “also recorded” stand apart in the source; their conditions may differ. Read-outs that look alike come from different tables or passages of the source.

T2 sequence (P32245 whole entry): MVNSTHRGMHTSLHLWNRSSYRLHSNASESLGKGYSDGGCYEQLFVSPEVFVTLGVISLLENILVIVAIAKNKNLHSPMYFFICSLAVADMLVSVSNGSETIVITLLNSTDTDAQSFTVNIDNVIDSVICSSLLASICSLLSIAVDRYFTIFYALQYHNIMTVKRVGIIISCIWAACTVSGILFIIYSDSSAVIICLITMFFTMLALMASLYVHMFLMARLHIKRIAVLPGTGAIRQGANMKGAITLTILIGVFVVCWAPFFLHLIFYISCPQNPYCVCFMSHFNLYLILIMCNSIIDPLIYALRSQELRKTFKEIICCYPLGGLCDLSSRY

As for “KKRRPAAAA (synthetic adrenocorticotropin hormone (ACTH) analog)”, the “inhibition of ACTH(1-24) activation of hMC2R” value (shortened to “inhibition … of hMC2R”) with MC2R [1] (setting [5]) was “did not block”.

Regarding “KKRRPVKVYP (synthetic adrenocorticotropin hormone analog ACTH(15-24) peptide, human ACTH residues 15-24, ACTH antagonist polypeptide) [ACTH antagonist polypeptide, residues 15-24 of human ACTH]”, the “inhibition … of hMC2R” value with MC2R [1] (setting [5]) is “complete blockage”; with MC2R [1] (analog at 10^-6 M co-incubated with ACTH(1-24) 10^-6 to 10^-12 M, listed as ACTH(15-24)), “completely blocked”; in the assay with MC2R [1] (setting [6]), “complete blockage”; with MC2R [1] (analog at 10^-7 M co-incubated with ACTH(1-24) 10^-6 to 10^-12 M, listed as ACTH(15-24)), “completely blocked”; with MC2R [1] (setting [7]) it was “partial blockage”; with MC2R [1] (analog at 10^-9 M co-incubated with ACTH(1-24)), “no effect”. Further, the “drop in hMC2R activation by ACTH(1-24)” value with MC2R [1] (setting [7]) stood at 34±5%. Also, in the assay with MC2R [2], the “activation of hMC2R (cAMP production) by analog incubated alone” value is listed as “did not activate”. The “MC2R activation relative to full-length ACTH” value with MC2R [3] is “No activity”.

“KPVGKKRRPVKVYP (synthetic adrenocorticotropin hormone analog ACTH(11-24) peptide, human ACTH residues 11-24) [ACTH analog ACTH(11-24), reference compound]”: the “inhibition of ACTH(1-24) stimulation” value with MC2R [1] (analog at 10^-6 M co-incubated with ACTH(1-24)) came out at 50%. In addition, the “inhibition … of hMC2R” value with MC2R [1] (setting [6]) was “no effect”.

For NAc-SYSMEHFRWGKPV-NH2 [α-MSH], the “activation of MC2R (previous studies)” value with MC2R [4] is “cannot activate”.

In the case of “RRPVKVYP (synthetic adrenocorticotropin hormone analog ACTH(17-24) peptide, human ACTH residues 17-24) [ACTH analog ACTH(17-24)]”, the “inhibition … of hMC2R” value with MC2R [1] (setting [5]) is given as “did not block”; in the assay with MC2R [1] (analog at 10^-6 M co-incubated with ACTH(1-24) 10^-6 to 10^-12 M, listed as ACTH(17-24)), “no inhibitory effect”. The “MC2R activation relative to full-length ACTH” value with MC2R [3] is given as “No activity”.

As to “SYSMEAAAAGKPVGKKRRPVKVYP (synthetic adrenocorticotropin hormone (ACTH) analog)”, the “MC2R activation relative to full-length ACTH” value with MC2R [3] is reported as “No activity”.

For “SYSMEHARWGKPVGKKRRPVKVYP (synthetic adrenocorticotropin hormone (ACTH) analog)”, in the assay with MC2R [3], the “MC2R activation relative to full-length ACTH” value is listed as “No activity”.

Consider “SYSMEHFAWGKPVGKKRRPVKVYP (synthetic adrenocorticotropin hormone (ACTH) analog)”, for which the “MC2R activation relative to full-length ACTH” value with MC2R [3] was “No activity”.

With “SYSMEHFRWAAAAAKKRRPVKVYP (synthetic adrenocorticotropin hormone (ACTH) analog)”, the “MC2R activation relative to full-length ACTH: fold drop in activity” value with MC2R [3] amounted to 400 fold drop.

With “SYSMEHFRWGKPVGAAAAAVKVYP (synthetic adrenocorticotropin hormone (ACTH) analog)”, in the assay with MC2R [3], the “MC2R activation relative to full-length ACTH” value is “No activity”.

As for “SYSMEHFRWGKPVGAARRPVKVYP (synthetic adrenocorticotropin hormone (ACTH) analog)”, in the assay with MC2R [3], the “MC2R activation relative to full-length ACTH: fold drop in activity” value is reported as 100 fold drop.

As for “SYSMEHFRWGKPVGKKAAAVKVYP (synthetic adrenocorticotropin hormone (ACTH) analog)”, the “MC2R activation relative to full-length ACTH: fold drop in activity” value with MC2R [3] turned out to be 100 fold drop.

In the case of “SYSMEHFRWGKPVGKKRRPVKVYP [reference compound]”, the “activation of MC2R (previous studies)” value in the assay with MC2R [4] (listed as ACTH(1-24)) is listed as “as potent an activator of MC2R as ACTH(1-39); also recorded: as fully as full-length human ACTH”. Moreover, the “activation of hMC2R (cAMP production) by analog incubated alone” value with MC2R [3] (10^-6 to 10^-12 M, listed as ACTH(1-24)) was “robust standard curve; also recorded: produced cAMP in a dose dependent manner”. The “MC2R activation relative to full-length ACTH” value with MC2R [3] is recorded as “Full activity”.

Turning to “SYSMEHFRWGKPVGKRAAWVKVYP (synthetic adrenocorticotropin hormone (ACTH) analog AT814 with modified KKRRP motif) [reference compound]”, the “inhibition … of hMC2R” value with MC2R [1] (setting [5]) was “competitive inhibitor; also recorded: completely inhibited”; in the assay with MC2R [1] (setting [6]) it was “ineffective; also recorded: no inhibitory effect”. The “activation of human MC4R (cAMP production)” value with human MC4R was “can activate; also recorded: stimulated the production of cAMP in a dose dependent manner”.
